{"source": "paper doi:10.1101/2021.05.25.445618", "key": {"[1]": {"target": "L. monocytogenes ClpP1 of the co-expressed ClpP1/2 preparation (L. monocytogenes)", "assay": "SEC"}, "[2]": {"target": "L. monocytogenes ClpP2 of the co-expressed ClpP1/2 preparation (L. monocytogenes)", "assay": "SEC"}, "[3]": {"target": "L. monocytogenes ClpP2, separately overexpressed and purified (ClpP2_(14)) (L. monocytogenes)", "assay": "SEC + other: intact protein mass spectrometry"}, "[4]": {"target": "C-terminally myc-tagged ClpP2 (ClpP2-2×myc) (L. monocytogenes EGD-e)", "assay": "affinity purification with mass spectrometry"}, "[5]": {"target": "L. monocytogenes ClpP1, separately overexpressed and purified (ClpP1_(7)) (L. monocytogenes)", "assay": "SEC"}, "[6]": {"target": "L. monocytogenes ClpP1, separately overexpressed and purified (ClpP1_(7)) (L. monocytogenes)", "assay": "SEC + other: intact protein mass spectrometry"}}}
{"substance": "L. monocytogenes ClpP1 of the co-expressed ClpP1/2 preparation (enzyme)", "values": [{"measurement": "stoichiometry N", "setting": "[1]", "result": 7}]}
{"substance": "L. monocytogenes ClpP2 of the co-expressed ClpP1/2 preparation (enzyme)", "values": [{"measurement": "stoichiometry N", "setting": "[2]", "result": 14}]}
{"substance": "L. monocytogenes ClpP2, separately overexpressed and purified (ClpP2_(14)) (enzyme)", "values": [{"measurement": "stoichiometry N", "setting": "[3]", "result": 14}]}
{"substance": "ClpP1, endogenous in L. monocytogenes (enzyme)", "values": [{"measurement": "fold enrichment at 42 °C over 20 °C", "setting": "[4]", "result": 6, "unit": "fold"}]}
{"substance": "L. monocytogenes ClpP1, separately overexpressed and purified (ClpP1_(7)) (enzyme)", "values": [{"measurement": "stoichiometry N", "setting": "[5]", "result": 7}, {"measurement": "stoichiometry N", "setting": "[6]", "result": 7}, {"measurement": "percent ClpP1 in the tetradecamer peak", "setting": "[3]", "result": "40 to 44", "unit": "%"}]}
